Our source for the stoichiometry N (PAR1b per CagA) and Kd values is publication PMC4957108.

Assay [1] deals with CagA-C1164S (Helicobacter pylori strain 26695) (UniProt P55980). Put plainly: AUC; sedimentation velocity, 20 °C, 10 mM HEPES pH 7.7, 150 mM NaCl, 1 mM EDTA; 5.5 μM CagA-CS, 11 μM PAR1b (39–364), alone or mixed; c(s) by SEDFIT.
Assay [2] has as its target GST-CagA-1CM^E (Helicobacter pylori strain 26695) (UniProt P55980). The assay is described as follows: pull-down; quantitative GST pull-down: GST-CagA on beads in a range of concentrations, fixed low concentration of PAR1b (39–364)-FLAG, GST-binding buffer with 0.01% Triton-X, 20 min at 4 °C, unbound PAR1b in the supernatant quantified, binding to GST control subtracted; apparent KD.

Assay [3] addresses GST-CagA-1CM^W1 (Helicobacter pylori strain 26695) (UniProt P55980). The assay is described as above.
In assay [4] the target is GST-CagA-1CM^W2 (Helicobacter pylori strain 26695) (UniProt P55980). The description is as above.

“PAR1b (39–364) (from UniProt Q7KZI7-14 39-364) (domain or fragment)” showed a stoichiometry N (PAR1b per CagA) in assay [1] of 2.
Regarding “PAR1b (39–364)-FLAG (from UniProt Q7KZI7-14 39-364) (domain or fragment)”, the Kd in assay [2] turned out to be 46.4 nM; in assay [3], 90.3 nM; in assay [4], 106 nM.
